T1: human CD73 ECD fused C-terminally to human IgG1 Fc (human, UniProt P21589 27-549, limits assumed)
T1 construct: Expressed in ExpiCHO; also called Hs CD73 ECD; Fc-tagged antigen
T1 sequence: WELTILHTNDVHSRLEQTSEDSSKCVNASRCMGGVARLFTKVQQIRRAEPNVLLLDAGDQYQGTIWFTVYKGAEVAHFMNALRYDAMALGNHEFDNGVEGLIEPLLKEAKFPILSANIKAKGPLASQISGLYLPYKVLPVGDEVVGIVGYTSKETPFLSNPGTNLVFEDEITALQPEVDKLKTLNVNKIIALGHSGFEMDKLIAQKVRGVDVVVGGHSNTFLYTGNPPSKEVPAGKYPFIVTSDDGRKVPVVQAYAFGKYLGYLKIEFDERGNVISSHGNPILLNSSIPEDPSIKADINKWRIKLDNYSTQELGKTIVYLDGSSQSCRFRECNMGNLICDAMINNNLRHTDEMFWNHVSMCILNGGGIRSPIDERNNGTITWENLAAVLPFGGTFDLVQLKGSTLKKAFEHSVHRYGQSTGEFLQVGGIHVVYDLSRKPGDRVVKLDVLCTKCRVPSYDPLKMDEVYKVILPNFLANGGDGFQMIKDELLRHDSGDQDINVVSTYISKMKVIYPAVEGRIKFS

T2: cynomolgus CD73 ECD fused C-terminally to human IgG1 Fc (cynomolgus monkey (Macaca …, UniProt A0A2K5V5U7 27-549))
T2 construct: also called Cy CD73 ECD; Fc-tagged antigen; not shown: Human IgG1 Fc (printed as AA P101-K330) fused to the C-terminus of the ECD, and any linker
T2 sequence: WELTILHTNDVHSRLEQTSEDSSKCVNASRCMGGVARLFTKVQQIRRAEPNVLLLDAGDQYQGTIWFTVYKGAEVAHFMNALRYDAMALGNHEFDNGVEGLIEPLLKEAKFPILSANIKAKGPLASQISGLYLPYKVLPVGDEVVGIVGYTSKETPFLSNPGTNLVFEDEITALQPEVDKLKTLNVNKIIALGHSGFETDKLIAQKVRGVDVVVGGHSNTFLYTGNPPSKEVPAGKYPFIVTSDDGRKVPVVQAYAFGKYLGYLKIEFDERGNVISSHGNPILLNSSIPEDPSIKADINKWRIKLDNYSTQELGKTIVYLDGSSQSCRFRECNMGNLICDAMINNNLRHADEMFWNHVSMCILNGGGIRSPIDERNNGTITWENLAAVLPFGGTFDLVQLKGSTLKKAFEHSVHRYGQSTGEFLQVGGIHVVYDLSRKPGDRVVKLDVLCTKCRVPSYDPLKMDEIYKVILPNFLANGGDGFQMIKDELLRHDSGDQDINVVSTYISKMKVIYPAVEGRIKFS

T3: human CD73 expressed on cells (human, UniProt P21589 27-549)
T3 construct: also called 5'-NT; human CD73 on CHO-S cells
T3 sequence: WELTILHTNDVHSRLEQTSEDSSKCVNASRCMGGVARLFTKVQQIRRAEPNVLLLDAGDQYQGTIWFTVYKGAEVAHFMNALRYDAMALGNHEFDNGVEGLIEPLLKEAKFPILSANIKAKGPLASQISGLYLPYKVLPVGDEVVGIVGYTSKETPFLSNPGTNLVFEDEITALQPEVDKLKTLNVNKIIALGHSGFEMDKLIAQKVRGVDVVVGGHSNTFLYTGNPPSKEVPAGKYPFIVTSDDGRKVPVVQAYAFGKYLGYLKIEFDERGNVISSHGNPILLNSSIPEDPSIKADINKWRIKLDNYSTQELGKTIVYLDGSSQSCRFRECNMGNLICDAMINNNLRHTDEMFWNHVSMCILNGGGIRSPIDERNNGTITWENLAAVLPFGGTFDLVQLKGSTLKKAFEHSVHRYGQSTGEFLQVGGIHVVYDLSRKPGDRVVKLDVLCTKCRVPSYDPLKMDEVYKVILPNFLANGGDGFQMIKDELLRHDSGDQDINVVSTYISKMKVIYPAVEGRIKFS


How the values were obtained:
[1] = molecular target: T1, human CD73 ECD fused C-terminally to …; test: SPR, Fc-tagged CD73 ECD captured, Fab injected
Procedure: (§1) Kinetic binding analysis of anti-CD73 mAbs and Fab fragments was performed by Surface Plasmon Resonance (SPR), using a Continuous Flow Microspotter (CFM, Wasatch Microfluidics, Salt Lake City, US) combined with an IBIS MX96 SPR instrument (IBIS Technologies, The Netherlands). CD73 cDNAs coding for the extracellular domains of human and cynomolgus CD73 were synthesized and each cloned into a vector containing a CMV promoter and either a C-terminal 6× histidine sequence (SEQ ID NO: 45) for His-tagged CD73 ECD, or a human IgG1 Fc sequence (AA P101-K330), resulting in fusion of IgG1 Fc C-terminally to the cloned CD73 ECD. The His-tagged and Fc-fusion constructs were transiently expressed using an ExpiCHO™ expression system and purified either by standard Ni-NTA chromatography or standard MabSelect™ SuRe™ procedures, respectively. Anti-CD73 Fab fragments were generated by digesting full-length IgG1 antibodies with GingisKHAN enzyme, using a kit provided by Genovis (Sweden). Affinities of Fab fragments were measured by capturing Fc-tagged antigens on a G-a-hu-IgG Fc SensEye® for 15 minutes using the CFM. After spotting, the SensEye® was positioned in the IBIS MX96 biosensor and immobilized antigens were fixed by SensEye FixIt kit. Kinetic analysis was performed by injecting monomeric Fab fragments at increasing concentrations from 0.8 nM to 300 nM. After each cycle of Fab fragment injection, the surface was regenerated by 10 mM glycine pH 3, 10% glycerol. Fab association was performed for 15 minutes and antigen dissociation was performed for 15 minutes. Affinities of full-length monoclonal antibodies (mAbs) were measured by capturing mAbs on a G-a-hu-IgG Fc SensEye® (Ssens BV, The Netherlands) for 15 minutes using a Continuous Flow Microspotter (CFM, Wasatch Microfluidics, Salt Lake City, US). After spotting, the SensEye was docked in the IBIS MX96 and spotted mAbs were fixed by SensEye FixIt kit (Ssens BV, The Netherlands). Kinetic analysis was performed by applying a kinetic titration series injecting increasing concentrations of His-tagged antigens from 0.16 nM to 10 nM as 2-fold dilutions. The surface was regenerated before the next cycle of cynomolgus antigen injections by 100 mM H₃PO₄, pH 3. MAb association was performed for 15 minutes and antigen dissociation was performed for 45 minutes.

[2] = molecular target: T2, cynomolgus CD73 ECD fused C-terminally …; test: SPR, Fc-tagged CD73 ECD captured, Fab injected
Procedure: as §1

[3] = molecular target: T3, human CD73 expressed on cells; test: flow cytometry on CHO-S cells transiently expressing human CD73, AF647 anti-human IgG (H+L) secondary, GeoMean
Procedure: The anti-CD73 antibodies were incubated with the hamster CHO-S cell line transiently expressing human or cynomolgus CD73 for 30 minutes at 4° C. The cells were washed twice and subsequently incubated for an additional 20 minutes with AF647-conjugated secondary anti-human IgG (H+L) antibody. After the washing step, antibody binding was detected using the high-throughput flow cytometer iQue Screener PLUS (Sartorius) measuring the GeoMean of AF647 signal in each well. Every concentration was assayed in triplicate and a 12-point titration curve was generated for each antibody.

| Binder | Kd [1] [nM] | koff [1] [s⁻¹] | kon [1] [M⁻¹ s⁻¹] | Kd [2] [nM] | koff [2] [s⁻¹] | kon [2] [M⁻¹ s⁻¹] | binding result [3] |
| --- | --- | --- | --- | --- | --- | --- | --- |
| 21163 Fab fragment (Fab, V domains shown, not shown: small tags and cut ends, Made by digesting the full-length IgG1 with GingisKHAN enzyme (Genovis)) VH: EVQLVESGGGLVQPGGSLRLSCAASGFSFSTYWMNWVRQAPGKGLEWVANIKQDGSEKYYVDSVKGRFTISRDNAKNSLYLQMNSLRAEDTAVYYCARDISSSWFYYYGMDVWGQGTTVTVSS VL: DIQLTQSPSFLSASVGDRVTITCRASQGISSYLAWYQQKPGKAPKLLIYAASTLQSGVPSRFSGSGSGTEFTLTISSLQPEDFATYYCQQLNSYPPTFGGGTKVEIKR | 78.3 | 0.015 | 200000 | 77.6 | 0.016 | 200000 |  |
| 21046 Fab fragment (Fab, V domains shown, not shown: small tags and cut ends, Made by digesting the full-length IgG1 with GingisKHAN enzyme (Genovis)) VH: EVQLVESGGGLVQPGRSLRLSCVASGFTFDDYAMHWVRQAPGKGLEWVSGISWNSGSIGYADSVKGRFTISRDNAKNSLYLQMNSLRAEDTAFYYCAQGGYAILTALEYWGQGTLVTVSS VL: DIQMTQSPSSLSASVGDRVTITCRASQGISNYLAWFQQKPGKAPKSLIYAASSLQSGVPSKFSGSGSGTDFTLTISSLQPEDFATYYCQQYNSYPLTFGGGTKVEIKR | 0.8 | 0.0005 | 610000 | 0.8 | 0.00052 | 620000 |  |
| antibody 21028 (antibody, human IgG1, kappa, L234A L235A, V domains shown, Fully human IgG1-LALA (L234A/L235A), kappa; germline-corrected (Symplex-corrected) variable domains) VH: EVQLVESGGGLVQPGRSLRLSCAASGFSFDDYAMHWVRQAPGKGLEWVSGISWHSDNIGYADSVKGRFTISRDNAKNSLYLQMNSLRAEDTAFYYCAKDGPRYRGSYYYFDYWGQGTLVTVSS VL: not shown |  |  |  |  |  |  | binds |

Reference: patent US20210070876A1 (LES LABORATOIRES SERVIER, published 2021)
